Reference: US20190153108A1 (AbbVie / Abbott, published 2019)

Target: human Epidermal Growth Factor Receptor (huEGFR) over-expressed in mcl-1-/- mouse embryonic fibroblasts (human, UniProt P00533 25-1210)
Assay: cell-based or functional assay

| Binder | huEGFR^+ mcl-1^-/- MEF EC50 |
| --- | --- |
| AbG-SE (antibody, V domains shown, synthon SE on reduced interchain Cys) VH: EVQLQESGPGLVKPSQTLSLTCTVSGYSISNDFAWNWIRQLPGKGLEWMGYISYKGNTRYQPSLKSRITISRDTSKNQFFLKLNSVTAADTATYYCVTASRGLPYWGQGTLVTVSS VL: DIQMTQSPSSMSVSVGDRVTITCHSSQDITYNIGWLQQKPGKSFKGLIYHGANLDDGVPSRFSGSGSGTDYTLTISSLQPEDFATYYCVQYDEFPWTFGGGTKLEIKR | 24 nM |
| AbG-SR (antibody, V domains shown, synthon SR on reduced interchain Cys) VH: EVQLQESGPGLVKPSQTLSLTCTVSGYSISNDFAWNWIRQLPGKGLEWMGYISYKGNTRYQPSLKSRITISRDTSKNQFFLKLNSVTAADTATYYCVTASRGLPYWGQGTLVTVSS VL: DIQMTQSPSSMSVSVGDRVTITCHSSQDITYNIGWLQQKPGKSFKGLIYHGANLDDGVPSRFSGSGSGTDYTLTISSLQPEDFATYYCVQYDEFPWTFGGGTKLEIKR | 7 nM |
| AbB-XW (antibody, V domains shown, synthon XW on reduced interchain Cys) VH: EVQLQESGPGLVKPSQTLSLTCTVSGYSISNDFAWNWIRQPPGKGLEWMGYISYKGNTRYQPSLKSRITISRDTSKNQFFLKLNSVTAADTATYYCVTASRGFPWWGQGTLVTVSS VL: DIQMTQSPSSMSVSVGDRVTITCHSSQDINSNIGWLQQKPGKSFKGLIYHGTNLDDGVPSRFSGSGSGTDYTLTISSLQPEDFATYYCVQYAQFPWTFGGGTKLEIKR | 0.65 nM |
| AbA-KZ (antibody, V domains shown, synthon KZ on reduced interchain Cys) VH: EVQLQESGPGLVKPSQTLSLTCTVSGYSISRDFAWNWIRQPPGKGLEWMGYISYNGNTRYQPSLKSRITISRDTSKNQFFLKLNSVTAADTATYYCVTASRGFPYWGQGTLVTVSS VL: DIQMTQSPSSMSVSVGDRVTITCHSSQDINSNIGWLQQKPGKSFKGLIYHGTNLDDGVPSRFSGSGSGTDYTLTISSLQPEDFATYYCVQYAQFPWTFGGGTKLEIKR | 152 nM |
| AbG-KZ (antibody, V domains shown, synthon KZ on reduced interchain Cys) VH: EVQLQESGPGLVKPSQTLSLTCTVSGYSISNDFAWNWIRQLPGKGLEWMGYISYKGNTRYQPSLKSRITISRDTSKNQFFLKLNSVTAADTATYYCVTASRGLPYWGQGTLVTVSS VL: DIQMTQSPSSMSVSVGDRVTITCHSSQDITYNIGWLQQKPGKSFKGLIYHGANLDDGVPSRFSGSGSGTDYTLTISSLQPEDFATYYCVQYDEFPWTFGGGTKLEIKR | 96 nM |
| AbG-XW (antibody, V domains shown, synthon XW on reduced interchain Cys) VH: EVQLQESGPGLVKPSQTLSLTCTVSGYSISNDFAWNWIRQLPGKGLEWMGYISYKGNTRYQPSLKSRITISRDTSKNQFFLKLNSVTAADTATYYCVTASRGLPYWGQGTLVTVSS VL: DIQMTQSPSSMSVSVGDRVTITCHSSQDITYNIGWLQQKPGKSFKGLIYHGANLDDGVPSRFSGSGSGTDYTLTISSLQPEDFATYYCVQYDEFPWTFGGGTKLEIKR | 19 nM |
| AbB-ZZ (antibody, V domains shown, synthon ZZ on reduced interchain Cys) VH: EVQLQESGPGLVKPSQTLSLTCTVSGYSISNDFAWNWIRQPPGKGLEWMGYISYKGNTRYQPSLKSRITISRDTSKNQFFLKLNSVTAADTATYYCVTASRGFPWWGQGTLVTVSS VL: DIQMTQSPSSMSVSVGDRVTITCHSSQDINSNIGWLQQKPGKSFKGLIYHGTNLDDGVPSRFSGSGSGTDYTLTISSLQPEDFATYYCVQYAQFPWTFGGGTKLEIKR | 7.4 nM |
| AbA-YY (antibody, V domains shown, synthon YY on reduced interchain Cys) VH: EVQLQESGPGLVKPSQTLSLTCTVSGYSISRDFAWNWIRQPPGKGLEWMGYISYNGNTRYQPSLKSRITISRDTSKNQFFLKLNSVTAADTATYYCVTASRGFPYWGQGTLVTVSS VL: DIQMTQSPSSMSVSVGDRVTITCHSSQDINSNIGWLQQKPGKSFKGLIYHGTNLDDGVPSRFSGSGSGTDYTLTISSLQPEDFATYYCVQYAQFPWTFGGGTKLEIKR | 460 nM |
| AbB-SR (antibody, V domains shown, synthon SR on reduced interchain Cys) VH: EVQLQESGPGLVKPSQTLSLTCTVSGYSISNDFAWNWIRQPPGKGLEWMGYISYKGNTRYQPSLKSRITISRDTSKNQFFLKLNSVTAADTATYYCVTASRGFPWWGQGTLVTVSS VL: DIQMTQSPSSMSVSVGDRVTITCHSSQDINSNIGWLQQKPGKSFKGLIYHGTNLDDGVPSRFSGSGSGTDYTLTISSLQPEDFATYYCVQYAQFPWTFGGGTKLEIKR | 7 nM |
| AbA-SR (antibody, V domains shown, synthon SR on reduced interchain Cys) VH: EVQLQESGPGLVKPSQTLSLTCTVSGYSISRDFAWNWIRQPPGKGLEWMGYISYNGNTRYQPSLKSRITISRDTSKNQFFLKLNSVTAADTATYYCVTASRGFPYWGQGTLVTVSS VL: DIQMTQSPSSMSVSVGDRVTITCHSSQDINSNIGWLQQKPGKSFKGLIYHGTNLDDGVPSRFSGSGSGTDYTLTISSLQPEDFATYYCVQYAQFPWTFGGGTKLEIKR | 5.9 nM |
| AbA-XW (antibody, V domains shown, synthon XW on reduced interchain Cys) VH: EVQLQESGPGLVKPSQTLSLTCTVSGYSISRDFAWNWIRQPPGKGLEWMGYISYNGNTRYQPSLKSRITISRDTSKNQFFLKLNSVTAADTATYYCVTASRGFPYWGQGTLVTVSS VL: DIQMTQSPSSMSVSVGDRVTITCHSSQDINSNIGWLQQKPGKSFKGLIYHGTNLDDGVPSRFSGSGSGTDYTLTISSLQPEDFATYYCVQYAQFPWTFGGGTKLEIKR | 32 nM |

Results, then the binder that gave them:

| huEGFR^+ mcl-1^-/- MEF EC50 | Binder |
| --- | --- |
| 0.3 nM | AbA-CZ (antibody, V domains shown, synthon CZ on reduced interchain Cys) VH: EVQLQESGPGLVKPSQTLSLTCTVSGYSISRDFAWNWIRQPPGKGLEWMGYISYNGNTRYQPSLKSRITISRDTSKNQFFLKLNSVTAADTATYYCVTASRGFPYWGQGTLVTVSS VL: DIQMTQSPSSMSVSVGDRVTITCHSSQDINSNIGWLQQKPGKSFKGLIYHGTNLDDGVPSRFSGSGSGTDYTLTISSLQPEDFATYYCVQYAQFPWTFGGGTKLEIKR |
| 220 nM | AbA-AAA (antibody, V domains shown, synthon AAA on reduced interchain Cys) VH: EVQLQESGPGLVKPSQTLSLTCTVSGYSISRDFAWNWIRQPPGKGLEWMGYISYNGNTRYQPSLKSRITISRDTSKNQFFLKLNSVTAADTATYYCVTASRGFPYWGQGTLVTVSS VL: DIQMTQSPSSMSVSVGDRVTITCHSSQDINSNIGWLQQKPGKSFKGLIYHGTNLDDGVPSRFSGSGSGTDYTLTISSLQPEDFATYYCVQYAQFPWTFGGGTKLEIKR |
| 55 nM | AbB-KZ (antibody, V domains shown, synthon KZ on reduced interchain Cys) VH: EVQLQESGPGLVKPSQTLSLTCTVSGYSISNDFAWNWIRQPPGKGLEWMGYISYKGNTRYQPSLKSRITISRDTSKNQFFLKLNSVTAADTATYYCVTASRGFPWWGQGTLVTVSS VL: DIQMTQSPSSMSVSVGDRVTITCHSSQDINSNIGWLQQKPGKSFKGLIYHGTNLDDGVPSRFSGSGSGTDYTLTISSLQPEDFATYYCVQYAQFPWTFGGGTKLEIKR |
| 33 nM | AbG-ZT (antibody, V domains shown, synthon ZT on reduced interchain Cys) VH: EVQLQESGPGLVKPSQTLSLTCTVSGYSISNDFAWNWIRQLPGKGLEWMGYISYKGNTRYQPSLKSRITISRDTSKNQFFLKLNSVTAADTATYYCVTASRGLPYWGQGTLVTVSS VL: DIQMTQSPSSMSVSVGDRVTITCHSSQDITYNIGWLQQKPGKSFKGLIYHGANLDDGVPSRFSGSGSGTDYTLTISSLQPEDFATYYCVQYDEFPWTFGGGTKLEIKR |
| 105 nM | AbA-SE (antibody, V domains shown, synthon SE on reduced interchain Cys) VH: EVQLQESGPGLVKPSQTLSLTCTVSGYSISRDFAWNWIRQPPGKGLEWMGYISYNGNTRYQPSLKSRITISRDTSKNQFFLKLNSVTAADTATYYCVTASRGFPYWGQGTLVTVSS VL: DIQMTQSPSSMSVSVGDRVTITCHSSQDINSNIGWLQQKPGKSFKGLIYHGTNLDDGVPSRFSGSGSGTDYTLTISSLQPEDFATYYCVQYAQFPWTFGGGTKLEIKR |
| 8.9 nM | AbB-ZT (antibody, V domains shown, synthon ZT on reduced interchain Cys) VH: EVQLQESGPGLVKPSQTLSLTCTVSGYSISNDFAWNWIRQPPGKGLEWMGYISYKGNTRYQPSLKSRITISRDTSKNQFFLKLNSVTAADTATYYCVTASRGFPWWGQGTLVTVSS VL: DIQMTQSPSSMSVSVGDRVTITCHSSQDINSNIGWLQQKPGKSFKGLIYHGTNLDDGVPSRFSGSGSGTDYTLTISSLQPEDFATYYCVQYAQFPWTFGGGTKLEIKR |
| 3.3 nM | AbB-YG (antibody, V domains shown, synthon YG on reduced interchain Cys) VH: EVQLQESGPGLVKPSQTLSLTCTVSGYSISNDFAWNWIRQPPGKGLEWMGYISYKGNTRYQPSLKSRITISRDTSKNQFFLKLNSVTAADTATYYCVTASRGFPWWGQGTLVTVSS VL: DIQMTQSPSSMSVSVGDRVTITCHSSQDINSNIGWLQQKPGKSFKGLIYHGTNLDDGVPSRFSGSGSGTDYTLTISSLQPEDFATYYCVQYAQFPWTFGGGTKLEIKR |
| 39 nM | AbB-SE (antibody, V domains shown, synthon SE on reduced interchain Cys) VH: EVQLQESGPGLVKPSQTLSLTCTVSGYSISNDFAWNWIRQPPGKGLEWMGYISYKGNTRYQPSLKSRITISRDTSKNQFFLKLNSVTAADTATYYCVTASRGFPWWGQGTLVTVSS VL: DIQMTQSPSSMSVSVGDRVTITCHSSQDINSNIGWLQQKPGKSFKGLIYHGTNLDDGVPSRFSGSGSGTDYTLTISSLQPEDFATYYCVQYAQFPWTFGGGTKLEIKR |
| 68 nM | AbG-ZZ (antibody, V domains shown, synthon ZZ on reduced interchain Cys) VH: EVQLQESGPGLVKPSQTLSLTCTVSGYSISNDFAWNWIRQLPGKGLEWMGYISYKGNTRYQPSLKSRITISRDTSKNQFFLKLNSVTAADTATYYCVTASRGLPYWGQGTLVTVSS VL: DIQMTQSPSSMSVSVGDRVTITCHSSQDITYNIGWLQQKPGKSFKGLIYHGANLDDGVPSRFSGSGSGTDYTLTISSLQPEDFATYYCVQYDEFPWTFGGGTKLEIKR |
| 6.4 nM | AbA-YG (antibody, V domains shown, synthon YG on reduced interchain Cys) VH: EVQLQESGPGLVKPSQTLSLTCTVSGYSISRDFAWNWIRQPPGKGLEWMGYISYNGNTRYQPSLKSRITISRDTSKNQFFLKLNSVTAADTATYYCVTASRGFPYWGQGTLVTVSS VL: DIQMTQSPSSMSVSVGDRVTITCHSSQDINSNIGWLQQKPGKSFKGLIYHGTNLDDGVPSRFSGSGSGTDYTLTISSLQPEDFATYYCVQYAQFPWTFGGGTKLEIKR |
| 1 nM | AbG-YG (antibody, V domains shown, synthon YG on reduced interchain Cys) VH: EVQLQESGPGLVKPSQTLSLTCTVSGYSISNDFAWNWIRQLPGKGLEWMGYISYKGNTRYQPSLKSRITISRDTSKNQFFLKLNSVTAADTATYYCVTASRGLPYWGQGTLVTVSS VL: DIQMTQSPSSMSVSVGDRVTITCHSSQDITYNIGWLQQKPGKSFKGLIYHGANLDDGVPSRFSGSGSGTDYTLTISSLQPEDFATYYCVQYDEFPWTFGGGTKLEIKR |
